Results on six molecules are retold here after PMC2133002 (The Journal of Cell Biology, 1998).

Experiment in all cases: co-IP
In assay [1] the target is membrin (rat (endogenous in rat liver)) (UniProt O35165).
The target in assay [2] is rbet1 (rat (endogenous in rat liver)) (UniProt Q62896).
Assay [3] deals with T1, Golgi SNARE of 28 kD (GOS-28) (rat (endogenous in rat liver), UniProt Q62931 1-250).
T1 sequence: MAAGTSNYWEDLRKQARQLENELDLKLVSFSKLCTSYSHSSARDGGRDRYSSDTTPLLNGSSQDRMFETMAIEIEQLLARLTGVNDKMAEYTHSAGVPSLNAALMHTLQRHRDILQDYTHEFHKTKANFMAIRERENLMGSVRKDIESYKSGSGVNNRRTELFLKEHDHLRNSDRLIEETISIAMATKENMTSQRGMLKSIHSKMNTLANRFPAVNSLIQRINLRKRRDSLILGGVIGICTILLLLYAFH

Another assay has as its target T2, membrin (rat (endogenous in rat liver), UniProt O35165 1-212).
T2 sequence: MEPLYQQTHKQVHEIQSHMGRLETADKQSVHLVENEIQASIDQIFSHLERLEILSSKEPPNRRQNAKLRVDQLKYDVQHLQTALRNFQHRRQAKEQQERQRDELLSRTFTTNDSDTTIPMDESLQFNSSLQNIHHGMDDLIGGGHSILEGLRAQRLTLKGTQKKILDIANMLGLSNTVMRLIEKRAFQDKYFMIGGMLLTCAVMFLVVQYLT

The next assay concerns the target T3, rbet1 (rat (endogenous in rat liver), UniProt Q62896 1-118).
T3 sequence: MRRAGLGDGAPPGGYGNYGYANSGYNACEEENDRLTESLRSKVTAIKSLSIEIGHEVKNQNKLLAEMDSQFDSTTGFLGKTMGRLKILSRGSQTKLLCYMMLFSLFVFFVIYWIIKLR

As to “rbet1 (from UniProt Q62896 1-118) (natural protein)”, the efficiency of coprecipitation (arbitrary units) in assay [1] was found to be 115.
With “rsec22b (from UniProt Q4KM74 1-215) (natural protein)”, the efficiency of coprecipitation (arbitrary units) in assay [2] was 247.
On the same count and under the same terms, next, “syntaxin 5, 31-kD form (degradation product of the 41-kD isoform) (domain or fragment)”: 139; “membrin (from UniProt O35165 1-212) (natural protein)”: 308.

B1: syntaxin 5, 34-kD isoform (natural protein)
chain: MSCRDRTQEFLSACKSLQSRQNGIQTNKPALHATRQCSEFTLMARRIGKDLSNTFAKLEKLTILAKRKSLFDDKAVEIEELTYIIKQDINSLNKQIAQLQDFVRAKGSQSGRHLQTHSNTIVVSLQSKLASMSNDFKSVLEVRTENLKQQRNRREQFSRAPVSALPLAPNNLGGGPIVLGGESRASRDVAIDMMDPRTSQQLQLIDEQDSYIQSRADTMQNIESTIVELGSIFQQLAHMVKEQEETIQRIDENVLGAQLDVEAAHSEILKYFQSVTSNRWLMVKIFLILIVFFIIFVVFLA
As to B1, the efficiency of coprecipitation in assay [3] was determined as 134 arbitrary units; with membrin, 37 arbitrary units; in the assay with rbet1 it was 128 arbitrary units.

B2: syntaxin 5, 41-kD isoform (natural protein)
chain: MIPRKRYGSKNTDQGVYLGLSKTQVLSPATAINSSSDIAPLPTPVALVPSPPDTMSCRDRTQEFLSACKSLQSRQNGIQTNKPALHATRQCSEFTLMARRIGKDLSNTFAKLEKLTILAKRKSLFDDKAVEIEELTYIIKQDINSLNKQIAQLQDFVRAKGSQSGRHLQTHSNTIVVSLQSKLASMSNDFKSVLEVRTENLKQQRNRREQFSRAPVSALPLAPNNLGGGPIVLGGESRASRDVAIDMMDPRTSQQLQLIDEQDSYIQSRADTMQNIESTIVELGSIFQQLAHMVKEQEETIQRIDENVLGAQLDVEAAHSEILKYFQSVTSNRWLMVKIFLILIVFFIIFVVFLA
Regarding B2, the efficiency of coprecipitation in assay [3] was 30 arbitrary units; with membrin it was 25 arbitrary units; in the assay with rbet1 it was 129 arbitrary units.
